Results: the supplement of paper PMC9233669
Fewer inactive variants are shown than the library holds.

Tests used:
biotinyl-Met-oxazolone = experiment: self-aminoacylation, catalytic enhancement (BMO) (fold over background); higher = more active; k-Seq, kA / k0A0; sequences stand for … in GGGAAUGGAUCCACAUCUACGAAUUC…UUCACUGCAGACUUGACGAAGCUG
Procedure, shortened: (§1)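 Mutagenized RNA pools (0.43 μM; 21-nt variable region) were treated with 2–1250 μM of each biotinyl-aminoacyl-oxazolone. Conditions were 50 μL HEPES/NaCl/KCl/MgCl2/CaCl2 buffer, 5% acetonitrile, pH 6.9–7.0, room temperature, 90 minutes. Catalytic enhancement, the median kA relative to the uncatalyzed rate, was derived from streptavidin capture, qPCR and Illumina sequencing.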

biotinyl-Ile-oxazolone = experiment: self-aminoacylation, catalytic enhancement (BIO) (fold over background); higher = more active; k-Seq, kA / k0A0; sequences stand for … in GGGAAUGGAUCCACAUCUACGAAUUC…UUCACUGCAGACUUGACGAAGCUG
Procedure, shortened: as §1

biotinyl-Trp-oxazolone = experiment: self-aminoacylation, catalytic enhancement (BWO) (fold over background); higher = more active; k-Seq, kA / k0A0; sequences stand for … in GGGAAUGGAUCCACAUCUACGAAUUC…UUCACUGCAGACUUGACGAAGCUG
Procedure, shortened: as §1

biotinyl-Val-oxazolone = experiment: self-aminoacylation, catalytic enhancement (BVO) (fold over background); higher = more active; k-Seq, kA / k0A0; sequences stand for … in GGGAAUGGAUCCACAUCUACGAAUUC…UUCACUGCAGACUUGACGAAGCUG
Procedure, shortened: as §1

biotinyl-Leu-oxazolone = experiment: self-aminoacylation, catalytic enhancement (BLO) (fold over background); higher = more active; k-Seq, kA / k0A0; sequences stand for … in GGGAAUGGAUCCACAUCUACGAAUUC…UUCACUGCAGACUUGACGAAGCUG
Procedure, shortened: as §1

biotinyl-Phe-oxazolone = experiment: self-aminoacylation, catalytic enhancement (BFO) (fold over background); higher = more active; k-Seq, kA / k0A0; sequences stand for … in GGGAAUGGAUCCACAUCUACGAAUUC…UUCACUGCAGACUUGACGAAGCUG
Procedure, shortened: as §1

Q: With “CUACUUUAAACAAUCGGCCUG [Fam1A.1 aminoacylation ribozyme variant]” as the sequence, how does the self-aminoacylation (biotinyl-Met-oxazolone) read?
A: 1.24

Q: What about the self-aminoacylation (biotinyl-Ile-oxazolone) of the same sequence?
A: 1.2

Q: What about the self-aminoacylation (biotinyl-Trp-oxazolone) of the same sequence?
A: 2.02

Q: What about the self-aminoacylation (biotinyl-Val-oxazolone) of the same sequence?
A: 1.03

Q: What about the self-aminoacylation (biotinyl-Leu-oxazolone) of the same sequence?
A: 0.974

Q: And the self-aminoacylation (biotinyl-Phe-oxazolone)?
A: 0.942

Q: “CUACUUUAAACAAUCGGUCUU [Fam1A.1 aminoacylation ribozyme variant]” was tested. Which self-aminoacylation (biotinyl-Met-oxazolone) did it give?
A: 1.09

Q: What about the self-aminoacylation (biotinyl-Ile-oxazolone) of the same sequence?
A: 0.888

Q: And the self-aminoacylation (biotinyl-Trp-oxazolone)?
A: 0.6

Q: And the self-aminoacylation (biotinyl-Val-oxazolone)?
A: 0.885

Q: What about the self-aminoacylation (biotinyl-Leu-oxazolone) of the same sequence?
A: 0.738

Q: What about the self-aminoacylation (biotinyl-Phe-oxazolone) of the same sequence?
A: 0.805

Q: With “CUACUUUACACAAUCGGUCUG [Fam1A.1 aminoacylation ribozyme variant]” as the sequence, how does the self-aminoacylation (biotinyl-Met-oxazolone) read?
A: 0.872

Q: And the self-aminoacylation (biotinyl-Ile-oxazolone)?
A: 0.87

Q: What about the self-aminoacylation (biotinyl-Trp-oxazolone) of the same sequence?
A: 0.543

Q: And the self-aminoacylation (biotinyl-Val-oxazolone)?
A: 0.805

Q: And the self-aminoacylation (biotinyl-Leu-oxazolone)?
A: 0.742

Q: And the self-aminoacylation (biotinyl-Phe-oxazolone)?
A: 0.601

Q: With “CUACUUUCAACAAUCGGUCUG [Fam1A.1 aminoacylation ribozyme variant]” as the sequence, how does the self-aminoacylation (biotinyl-Met-oxazolone) read?
A: 0.895

Q: And the self-aminoacylation (biotinyl-Ile-oxazolone)?
A: 0.99

Q: And the self-aminoacylation (biotinyl-Trp-oxazolone)?
A: 10.3

Q: And the self-aminoacylation (biotinyl-Val-oxazolone)?
A: 1.06

Q: What about the self-aminoacylation (biotinyl-Leu-oxazolone) of the same sequence?
A: 1.09

Q: And the self-aminoacylation (biotinyl-Phe-oxazolone)?
A: 14.5

Q: Which self-aminoacylation (biotinyl-Met-oxazolone) does the source give for “CUACUUUUAACAAUCGGUCUG [Fam1A.1 aminoacylation ribozyme variant]” here?
A: 0.921

Q: What about the self-aminoacylation (biotinyl-Ile-oxazolone) of the same sequence?
A: 0.888

Q: What about the self-aminoacylation (biotinyl-Trp-oxazolone) of the same sequence?
A: 0.516

Q: What about the self-aminoacylation (biotinyl-Val-oxazolone) of the same sequence?
A: 0.802

Q: And the self-aminoacylation (biotinyl-Leu-oxazolone)?
A: 0.713

Q: What about the self-aminoacylation (biotinyl-Phe-oxazolone) of the same sequence?
A: 0.864

Q: How did the self-aminoacylation (biotinyl-Met-oxazolone) turn out when “CUAGCUCAAACAAUCGGUCUG [Fam1A.1 aminoacylation ribozyme variant]” was run?
A: 0.776

Q: What about the self-aminoacylation (biotinyl-Ile-oxazolone) of the same sequence?
A: 0.817

Q: What about the self-aminoacylation (biotinyl-Trp-oxazolone) of the same sequence?
A: 3.09

Q: And the self-aminoacylation (biotinyl-Val-oxazolone)?
A: 0.914

Q: And the self-aminoacylation (biotinyl-Leu-oxazolone)?
A: 0.742

Q: And the self-aminoacylation (biotinyl-Phe-oxazolone)?
A: 4.58

Q: What does the source list for “CUAGUGCAAACAAUCGGUCUG [Fam1A.1 aminoacylation ribozyme variant]”?
A: self-aminoacylation (biotinyl-Met-oxazolone): 0.962; self-aminoacylation (biotinyl-Ile-oxazolone): 0.998; self-aminoacylation (biotinyl-Trp-oxazolone): 0.9; self-aminoacylation (biotinyl-Val-oxazolone): 1; self-aminoacylation (biotinyl-Leu-oxazolone): 1.03; self-aminoacylation (biotinyl-Phe-oxazolone): 2.39

Q: Which self-aminoacylation (biotinyl-Met-oxazolone) does the source give for “CUAGUUCAAACAAACGGUCUG [Fam1A.1 aminoacylation ribozyme variant]” here?
A: 0.814

Q: What about the self-aminoacylation (biotinyl-Ile-oxazolone) of the same sequence?
A: 0.913

Q: What about the self-aminoacylation (biotinyl-Trp-oxazolone) of the same sequence?
A: 0.823

Q: What about the self-aminoacylation (biotinyl-Val-oxazolone) of the same sequence?
A: 0.77

Q: And the self-aminoacylation (biotinyl-Leu-oxazolone)?
A: 0.91

Q: And the self-aminoacylation (biotinyl-Phe-oxazolone)?
A: 0.831

Q: What does the source list for “CUAGUUCAAACAACCGGUCUG [Fam1A.1 aminoacylation ribozyme variant]”?
A: self-aminoacylation (biotinyl-Met-oxazolone): 1.05; self-aminoacylation (biotinyl-Ile-oxazolone): 1.23; self-aminoacylation (biotinyl-Trp-oxazolone): 0.982; self-aminoacylation (biotinyl-Val-oxazolone): 1.2; self-aminoacylation (biotinyl-Leu-oxazolone): 0.965; self-aminoacylation (biotinyl-Phe-oxazolone): 0.987

Q: What does the source list for “CUAGUUCAAACAGUCGGUCUG [Fam1A.1 aminoacylation ribozyme variant]”?
A: self-aminoacylation (biotinyl-Met-oxazolone): 0.947; self-aminoacylation (biotinyl-Ile-oxazolone): 1.04; self-aminoacylation (biotinyl-Trp-oxazolone): 0.759; self-aminoacylation (biotinyl-Val-oxazolone): 0.945; self-aminoacylation (biotinyl-Leu-oxazolone): 1.12; self-aminoacylation (biotinyl-Phe-oxazolone): 0.551

Q: With “CUAGUUCAAAGAAUCGGUCUG [Fam1A.1 aminoacylation ribozyme variant]” as the sequence, how does the self-aminoacylation (biotinyl-Met-oxazolone) read?
A: 1.04

Q: What about the self-aminoacylation (biotinyl-Ile-oxazolone) of the same sequence?
A: 0.967

Q: And the self-aminoacylation (biotinyl-Trp-oxazolone)?
A: 1.44

Q: And the self-aminoacylation (biotinyl-Val-oxazolone)?
A: 0.951

Q: And the self-aminoacylation (biotinyl-Leu-oxazolone)?
A: 1.14

Q: What about the self-aminoacylation (biotinyl-Phe-oxazolone) of the same sequence?
A: 1.5

Q: How did the self-aminoacylation (biotinyl-Met-oxazolone) turn out when “CUAGUUCAAAUAAUCGGUCUG [Fam1A.1 aminoacylation ribozyme variant]” was run?
A: 0.872

Q: And the self-aminoacylation (biotinyl-Ile-oxazolone)?
A: 0.901

Q: And the self-aminoacylation (biotinyl-Trp-oxazolone)?
A: 2.87

Q: What about the self-aminoacylation (biotinyl-Val-oxazolone) of the same sequence?
A: 0.793

Q: And the self-aminoacylation (biotinyl-Leu-oxazolone)?
A: 0.879

Q: What about the self-aminoacylation (biotinyl-Phe-oxazolone) of the same sequence?
A: 3.78

Q: Which self-aminoacylation (biotinyl-Met-oxazolone) does the source give for “CUAGUUUAAACAAUCGGUCUG [Fam1A.1 aminoacylation ribozyme variant]” here?
A: 0.84

Q: What about the self-aminoacylation (biotinyl-Ile-oxazolone) of the same sequence?
A: 0.924

Q: And the self-aminoacylation (biotinyl-Trp-oxazolone)?
A: 0.631

Q: And the self-aminoacylation (biotinyl-Val-oxazolone)?
A: 0.765

Q: And the self-aminoacylation (biotinyl-Leu-oxazolone)?
A: 0.774

Q: What about the self-aminoacylation (biotinyl-Phe-oxazolone) of the same sequence?
A: 0.814

Q: How did the self-aminoacylation (biotinyl-Met-oxazolone) turn out when “CUAUAUCAAACAAUCGGUCUG [Fam1A.1 aminoacylation ribozyme variant]” was run?
A: 0.561

Q: What about the self-aminoacylation (biotinyl-Ile-oxazolone) of the same sequence?
A: 0.752

Q: What about the self-aminoacylation (biotinyl-Trp-oxazolone) of the same sequence?
A: 1.01

Q: And the self-aminoacylation (biotinyl-Val-oxazolone)?
A: 0.634

Q: What about the self-aminoacylation (biotinyl-Leu-oxazolone) of the same sequence?
A: 0.638

Q: What about the self-aminoacylation (biotinyl-Phe-oxazolone) of the same sequence?
A: 1.62

Q: “CUAUUUAAAACAAUCGGUCUG [Fam1A.1 aminoacylation ribozyme variant]” was tested. Which self-aminoacylation (biotinyl-Met-oxazolone) did it give?
A: 0.927

Q: What about the self-aminoacylation (biotinyl-Ile-oxazolone) of the same sequence?
A: 0.834

Q: And the self-aminoacylation (biotinyl-Trp-oxazolone)?
A: 0.616

Q: What about the self-aminoacylation (biotinyl-Val-oxazolone) of the same sequence?
A: 0.841

Q: And the self-aminoacylation (biotinyl-Leu-oxazolone)?
A: 0.774

Q: And the self-aminoacylation (biotinyl-Phe-oxazolone)?
A: 0.598

Q: “CUAUUUCAAACAAACGGUCUG [Fam1A.1 aminoacylation ribozyme variant]” was tested. Which self-aminoacylation (biotinyl-Met-oxazolone) did it give?
A: 0.923

Q: What about the self-aminoacylation (biotinyl-Ile-oxazolone) of the same sequence?
A: 0.961

Q: What about the self-aminoacylation (biotinyl-Trp-oxazolone) of the same sequence?
A: 0.586

Q: What about the self-aminoacylation (biotinyl-Val-oxazolone) of the same sequence?
A: 0.971

Q: And the self-aminoacylation (biotinyl-Leu-oxazolone)?
A: 0.72

Q: And the self-aminoacylation (biotinyl-Phe-oxazolone)?
A: 1.2

Q: Which self-aminoacylation (biotinyl-Met-oxazolone) does the source give for “CUAUUUCAAACAAUAGGUCUG [Fam1A.1 aminoacylation ribozyme variant]” here?
A: 1.11

Q: What about the self-aminoacylation (biotinyl-Ile-oxazolone) of the same sequence?
A: 1.25

Q: What about the self-aminoacylation (biotinyl-Trp-oxazolone) of the same sequence?
A: 0.803

Q: And the self-aminoacylation (biotinyl-Val-oxazolone)?
A: 1.01

Q: What about the self-aminoacylation (biotinyl-Leu-oxazolone) of the same sequence?
A: 1.08

Q: What about the self-aminoacylation (biotinyl-Phe-oxazolone) of the same sequence?
A: 1.03

Q: What does the source list for “CUAUUUCAAACAAUCCGUCUG [Fam1A.1 aminoacylation ribozyme variant]”?
A: self-aminoacylation (biotinyl-Met-oxazolone): 0.818; self-aminoacylation (biotinyl-Ile-oxazolone): 0.826; self-aminoacylation (biotinyl-Trp-oxazolone): 0.595; self-aminoacylation (biotinyl-Val-oxazolone): 0.735; self-aminoacylation (biotinyl-Leu-oxazolone): 0.715; self-aminoacylation (biotinyl-Phe-oxazolone): 0.946

Q: For “CUAUUUCAAACAAUCGGUCGG [Fam1A.1 aminoacylation ribozyme variant]”, which self-aminoacylation (biotinyl-Met-oxazolone) is on record?
A: 0.793

Q: And the self-aminoacylation (biotinyl-Ile-oxazolone)?
A: 0.851

Q: And the self-aminoacylation (biotinyl-Trp-oxazolone)?
A: 1.9

Q: And the self-aminoacylation (biotinyl-Val-oxazolone)?
A: 0.868

Q: And the self-aminoacylation (biotinyl-Leu-oxazolone)?
A: 0.92

Q: And the self-aminoacylation (biotinyl-Phe-oxazolone)?
A: 2.12

Q: For “CUAUUUCAAACAAUCGGUCUA [Fam1A.1 aminoacylation ribozyme variant]”, which self-aminoacylation (biotinyl-Met-oxazolone) is on record?
A: 0.634

Q: What about the self-aminoacylation (biotinyl-Ile-oxazolone) of the same sequence?
A: 0.713

Q: What about the self-aminoacylation (biotinyl-Trp-oxazolone) of the same sequence?
A: 1.15

Q: And the self-aminoacylation (biotinyl-Val-oxazolone)?
A: 0.588

Q: And the self-aminoacylation (biotinyl-Leu-oxazolone)?
A: 0.571

Q: And the self-aminoacylation (biotinyl-Phe-oxazolone)?
A: 2.12

Q: “CUAUUUCAAACAAUCGGUCUG [Fam1A.1 aminoacylation ribozyme variant]” was tested. Which self-aminoacylation (biotinyl-Met-oxazolone) did it give?
A: 0.789

Q: And the self-aminoacylation (biotinyl-Ile-oxazolone)?
A: 0.819

Q: What about the self-aminoacylation (biotinyl-Trp-oxazolone) of the same sequence?
A: 4.39

Q: And the self-aminoacylation (biotinyl-Val-oxazolone)?
A: 0.781

Q: And the self-aminoacylation (biotinyl-Leu-oxazolone)?
A: 0.838

Q: And the self-aminoacylation (biotinyl-Phe-oxazolone)?
A: 8.5

Q: “CUAUUUCAAACAAUCGGUGUG [Fam1A.1 aminoacylation ribozyme variant]” was tested. Which self-aminoacylation (biotinyl-Met-oxazolone) did it give?
A: 1.01

Q: And the self-aminoacylation (biotinyl-Ile-oxazolone)?
A: 0.727

Q: And the self-aminoacylation (biotinyl-Trp-oxazolone)?
A: 0.757

Q: And the self-aminoacylation (biotinyl-Val-oxazolone)?
A: 0.83

Q: What about the self-aminoacylation (biotinyl-Leu-oxazolone) of the same sequence?
A: 0.992

Q: And the self-aminoacylation (biotinyl-Phe-oxazolone)?
A: 0.988

Q: Which results are given for “CUAUUUCAAACCAUCGGUCUG [Fam1A.1 aminoacylation ribozyme variant]”?
A: self-aminoacylation (biotinyl-Met-oxazolone): 1.09; self-aminoacylation (biotinyl-Ile-oxazolone): 1.03; self-aminoacylation (biotinyl-Trp-oxazolone): 0.708; self-aminoacylation (biotinyl-Val-oxazolone): 0.988; self-aminoacylation (biotinyl-Leu-oxazolone): 0.94; self-aminoacylation (biotinyl-Phe-oxazolone): 0.809
